From article PMC9658990 come the findings set out here.

The first series concerns the target T1, HMW-uPA (high molecular weight urokinase), biotinylated for FLAA (human, UniProt P00749;P00749 21-177;179-431). Briefly: FLAA (OliGreen); BPs-T: 50 mM Bis-Tris/HCl pH 6.5, 110 mM NaCl, 5 mM MgCl2, 1 mM CaCl2, 1 mM KCl (printed KCl2), 0.05% Tween 20, 23 °C.
For TAAGCGGGGGTGAGAGATCTGTCAGTACGAGCTGGGTTTGCG (ssDNA) [Ex-S1], the binding signal is 36 % signal reduction vs uPAapt-02-FR.
For the molecule CAAGCGGGGGTGAGAGATCTGTCAGTACGAGCTGGGTTTGTG (ssDNA) [Ex-S41], the binding signal was 3 % signal reduction vs uPAapt-02-FR.
Take CAAGCGGGGGCGAGAGATCTGTCAGTACGAGCTGGGTTTGCG (ssDNA) [Ex-S11]: the binding signal is 91 % signal reduction vs uPAapt-02-FR.
Still for that read-out and setting: in the case of CAAGCGGGGGTGAGAGATCTGTCAGTACGAGCTGGGTCTGCG (ssDNA) [Ex-S38] it was 53 % signal reduction vs uPAapt-02-FR; in that of CAAGCGGGGGTGAGAGCTCTGTCAGTACGAGCTGGGTTTGCG (ssDNA) [Ex-S17], 16 % signal reduction vs uPAapt-02-FR; in that of CAAGCGGGGGTGAGAGATCCGTCAGTACGAGCTGGGTTTGCG (ssDNA) [Ex-S20], 95 % signal reduction vs uPAapt-02-FR.
On the same count and under the same terms, in the case of CAAGCGGGGGTGAGCGATCTGTCAGTACGAGCTGGGTTTGCG (ssDNA) [Ex-S15] it was 89 % signal reduction vs uPAapt-02-FR; in that of CAAGCGGGGGTGAGAGATCTGCCAGTACGAGCTGGGTTTGCG (ssDNA) [Ex-S22], 99 % signal reduction vs uPAapt-02-FR; in that of CAAGCGGGTGTGAGAGATCTGTCAGTACGAGCTGGGTTTGCG (ssDNA) [Ex-S9], 65 % signal reduction vs uPAapt-02-FR.
CAAGCGGGGGTGAGAGATCTGTCAGTCCGAGCTGGGTTTGCG (ssDNA) [Ex-S27]: the binding signal is 100 % signal reduction vs uPAapt-02-FR.
On the same count and under the same terms, in the case of CAAGCGGGGGTGAGAGATCTGTCCGTACGAGCTGGGTTTGCG (ssDNA) [Ex-S24] it was 98 % signal reduction vs uPAapt-02-FR; in that of CAAGCGGGGGTGAGAGATCTGTCAGTACGATCTGGGTTTGCG (ssDNA) [Ex-S31], 100 % signal reduction vs uPAapt-02-FR.
The same measure, in the same setting: as for CAAGCGGGGGTGAGAGATCTGTCAGTATGAGCTGGGTTTGCG (ssDNA) [Ex-S28], the figure is 95 % signal reduction vs uPAapt-02-FR; as for CAAGCGGGGGTGAGAGATCTGTCAGTACGAGCTGGGTTTGCT (ssDNA) [Ex-S42], 17 % signal reduction vs uPAapt-02-FR; as for CAATCGGGGGTGAGAGATCTGTCAGTACGAGCTGGGTTTGCG (ssDNA) [Ex-S4], 85 % signal reduction vs uPAapt-02-FR.
Same read-out and setting: as for CAAGCGGTGGTGAGAGATCTGTCAGTACGAGCTGGGTTTGCG (ssDNA) [Ex-S8], the figure is 94 % signal reduction vs uPAapt-02-FR; as for CAAGCGGGGGTGAGAGATCTGTCAGCACGAGCTGGGTTTGCG (ssDNA) [Ex-S26], 89 % signal reduction vs uPAapt-02-FR; as for CAAGCGGGGGTGAGAGATCTGTCAGTACGAGCTTGGTTTGCG (ssDNA) [Ex-S34], 0 % signal reduction vs uPAapt-02-FR.
For CAAGCGGGGGTGAGAGATCTGTCAGTACGAGCCGGGTTTGCG (ssDNA) [Ex-S33], the binding signal is 82 % signal reduction vs uPAapt-02-FR.
Still for that read-out and setting: in the case of CAAGCGGGGGTGAGAGATCTGTTAGTACGAGCTGGGTTTGCG (ssDNA) [Ex-S23] it was 13 % signal reduction vs uPAapt-02-FR; in that of CAAGCGGGGGTGAGAGATCTGTCAGTACGAGCTGGGTTCGCG (ssDNA) [Ex-S39], 65 % signal reduction vs uPAapt-02-FR.
Still for that read-out and setting: in the case of CAAGCTGGGGTGAGAGATCTGTCAGTACGAGCTGGGTTTGCG (ssDNA) [Ex-S6] it was 50 % signal reduction vs uPAapt-02-FR; in that of CACGCGGGGGTGAGAGATCTGTCAGTACGAGCTGGGTTTGCG (ssDNA) [Ex-S3], 18 % signal reduction vs uPAapt-02-FR; in that of CAAGTGGGGGTGAGAGATCTGTCAGTACGAGCTGGGTTTGCG (ssDNA) [Ex-S5], 56 % signal reduction vs uPAapt-02-FR.
The same measure, in the same setting: as for CAAGCGGGGGTGAGATATCTGTCAGTACGAGCTGGGTTTGCG (ssDNA) [Ex-S16], the figure is 72 % signal reduction vs uPAapt-02-FR.
Regarding CAAGCGGGGGTGAGAGATCTGTCAGTACGAGCTGGGTTTTCG (ssDNA) [Ex-S40], the binding signal was 3 % signal reduction vs uPAapt-02-FR.
On the same count and under the same terms, as for CAAGCGGGGGTGATAGATCTGTCAGTACGAGCTGGGTTTGCG (ssDNA) [Ex-S14], the figure is 91 % signal reduction vs uPAapt-02-FR.
For the molecule CAAGCGGGGGTGCGAGATCTGTCAGTACGAGCTGGGTTTGCG (ssDNA) [Ex-S13], the binding signal was 97 % signal reduction vs uPAapt-02-FR.
Still for that read-out and setting: as for CAAGCGGGGGTGAGAGACCTGTCAGTACGAGCTGGGTTTGCG (ssDNA) [Ex-S18], the figure is 94 % signal reduction vs uPAapt-02-FR.
The same measure, in the same setting: as for CAAGCGGGGGTGAGAGATCTGTCAGTACGAGCTGGTTTTGCG (ssDNA) [Ex-S36], the figure is 11 % signal reduction vs uPAapt-02-FR; as for CAAGCGGGGGTGAGAGATCTTTCAGTACGAGCTGGGTTTGCG (ssDNA) [Ex-S21], 92 % signal reduction vs uPAapt-02-FR; as for CAAGCGGGGGTGAGAGATCTGTCAGTACTAGCTGGGTTTGCG (ssDNA) [Ex-S29], 47 % signal reduction vs uPAapt-02-FR.
Regarding CAAGCGGGGGTGAGAGATCTGTCAGTACGCGCTGGGTTTGCG (ssDNA) [Ex-S30], the binding signal was 89 % signal reduction vs uPAapt-02-FR.
The same measure, in the same setting: as for CAAGCGGGGGTGAGAGATCTGTCAGTACGAGTTGGGTTTGCG (ssDNA) [Ex-S32], the figure is 63 % signal reduction vs uPAapt-02-FR.
For the molecule CAAGCGGGGTTGAGAGATCTGTCAGTACGAGCTGGGTTTGCG (ssDNA) [Ex-S10], the binding signal was 78 % signal reduction vs uPAapt-02-FR.
Still for that read-out and setting: in the case of CAAGCGGGGGTGAGAGATCTGTCAGTACGAGCTGTGTTTGCG (ssDNA) [Ex-S35] it was 27 % signal reduction vs uPAapt-02-FR; in that of CAAGCGGGGGTGAGAGATTTGTCAGTACGAGCTGGGTTTGCG (ssDNA) [Ex-S19], 0 % signal reduction vs uPAapt-02-FR.
Same read-out and setting: as for CAAGCGTGGGTGAGAGATCTGTCAGTACGAGCTGGGTTTGCG (ssDNA) [Ex-S7], the figure is 34 % signal reduction vs uPAapt-02-FR.
The same measure, in the same setting: in the case of CAAGCGGGGGTGAGAGATCTGTCATTACGAGCTGGGTTTGCG (ssDNA) [Ex-S25] it was 99 % signal reduction vs uPAapt-02-FR.

The target in a further series is T1, HMW-uPA (high molecular weight …). The description is as above. The source holds these as a separate data set.
Take CCAGCGGGGGTGAGAGATCTGTCAGTACGAGCTGGGTTTGCG (ssDNA) [Ex-S2]: the binding result was “binds”.
On the same count and under the same terms, in the case of CAAGCGGGGGTGAGAGATCTGTCAGTACGAGCTGGGCTTGCG (ssDNA) [Ex-S37] it was “binds”; in that of CAAGCGGGGGTTAGAGATCTGTCAGTACGAGCTGGGTTTGCG (ssDNA) [Ex-S12], “binds”.
